Key:
[1] = target: MgF-actin (rabbit skeletal muscle actin, filament) (rabbit) (UniProt P68135)
[2] = target: MgF-actin (rabbit skeletal muscle actin, filament) (rabbit) (UniProt P68135); remark: listed apart in the source
[3] = target: MgF-actin (rabbit skeletal muscle actin, filament) (rabbit) (UniProt P68135); remark: listed apart in the source

Histatin-3 (peptide), sequence (P15516 20-51): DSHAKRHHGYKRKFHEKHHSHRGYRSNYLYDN

## Histatin-3 (peptide)
[1]
  bundling of 8 μM F-actin (low speed centrifugation): histatin concentration for 50% bundling: 5 µM
[2]
  decrease of the fluorescence emission at 581 nm of 5 μM TRC-F-actin (TRC on Gln41) by 8 μM histatin-3: 22.3%
[3]
  NaCl concentration (0-200 mM) at which bundles of 4 μM F-actin induced by 16 μM histatin are largely dissociated (low speed centrifugation): 100 mM
